Blank lines part the entries; values can stand above or below the substance they belong to.
Key:
[1] = SEC; each antibody alone at 100 mg/mL (second study also 50 mg/mL) in 20 mM acetate, 9% sucrose, 0.01% polysorbate 80, pH 5.2, stored at 40°C (also 25°C) up to 12 weeks; diluted 100-fold before SE-HPLC; TSKgel G3000SWxl, 0.2 M sodium phosphate pH 6.8, column at 30°C; dimer and multimer defined by …
PGT121 = experiment: SEC; each antibody alone, stored at 30°C; data not shown
3BNC117 [2] = experiment: as above
3BNC117 [3] = experiment: SEC; each antibody alone at 100 mg/mL (second study also 50 mg/mL) in 20 mM acetate, 9% sucrose, 0.01% polysorbate 80, pH 5.2, stored at 40°C (also 25°C) up to 12 weeks; diluted 100-fold before SE-HPLC; TSKgel G3000SWxl, 0.2 M sodium phosphate pH 6.8, column at 30°C; dimer and multimer defined by elution time relative to the monomer

Substance: 3BNC117
increase of the dimer's share of the SE-HPLC area against day 0 (12 weeks, 40°C) [1]: ∼6% increase compared to day 0 at 40 °C

stoichiometry N (PGT121): 2
Substance: PGT121 (antibody)

stoichiometry N (3BNC117 [2]): 2
rate of dimer formation at 40°C relative to PGT121 (3BNC117 [3]): 3.5 fold
stoichiometry N (3BNC117 [3]): 2
Substance: 3BNC117 (antibody)

Substance: PGT121
increase of the multimers' share of the SE-HPLC area against day 0 (12 weeks, 40°C) [1]: ∼3% increase compared to day 0 at 40 °C

— publication PMC6269598
